Reference: paper PMC7334205
One block for each substance: values may come before it.

What was measured:
Assay in all cases: bimolecular fluorescence complementation (BiFC), quantitative imaging of nuclear Venus fluorescence in cells
VN-Impα2 = VN-Impα2 (UniProt P52293); conditions: 18 h post-transfection, mean ± SEM, three independent experiments, parent: est. 1.0, read off a plot
VN-CIC = VN-CIC (UniProt Q96RK0); conditions: 18 h post-transfection; n = 258 (85Q) and 201 (mVS) nuclei; mean ± SEM, three independent experiments; parent: est. 1.0; read off a plot
VC-ataxin-1[85Q] = VC-ataxin-1[85Q] (UniProt P54253); conditions: 18 h post-transfection; n = 155 (wild-type Impα2) and 131 (mDE) nuclei; mean ± SEM, three independent experiments; parent: est. 1.0; read off a plot

UniProt Q96RK0, sequence (Q96RK0 whole entry): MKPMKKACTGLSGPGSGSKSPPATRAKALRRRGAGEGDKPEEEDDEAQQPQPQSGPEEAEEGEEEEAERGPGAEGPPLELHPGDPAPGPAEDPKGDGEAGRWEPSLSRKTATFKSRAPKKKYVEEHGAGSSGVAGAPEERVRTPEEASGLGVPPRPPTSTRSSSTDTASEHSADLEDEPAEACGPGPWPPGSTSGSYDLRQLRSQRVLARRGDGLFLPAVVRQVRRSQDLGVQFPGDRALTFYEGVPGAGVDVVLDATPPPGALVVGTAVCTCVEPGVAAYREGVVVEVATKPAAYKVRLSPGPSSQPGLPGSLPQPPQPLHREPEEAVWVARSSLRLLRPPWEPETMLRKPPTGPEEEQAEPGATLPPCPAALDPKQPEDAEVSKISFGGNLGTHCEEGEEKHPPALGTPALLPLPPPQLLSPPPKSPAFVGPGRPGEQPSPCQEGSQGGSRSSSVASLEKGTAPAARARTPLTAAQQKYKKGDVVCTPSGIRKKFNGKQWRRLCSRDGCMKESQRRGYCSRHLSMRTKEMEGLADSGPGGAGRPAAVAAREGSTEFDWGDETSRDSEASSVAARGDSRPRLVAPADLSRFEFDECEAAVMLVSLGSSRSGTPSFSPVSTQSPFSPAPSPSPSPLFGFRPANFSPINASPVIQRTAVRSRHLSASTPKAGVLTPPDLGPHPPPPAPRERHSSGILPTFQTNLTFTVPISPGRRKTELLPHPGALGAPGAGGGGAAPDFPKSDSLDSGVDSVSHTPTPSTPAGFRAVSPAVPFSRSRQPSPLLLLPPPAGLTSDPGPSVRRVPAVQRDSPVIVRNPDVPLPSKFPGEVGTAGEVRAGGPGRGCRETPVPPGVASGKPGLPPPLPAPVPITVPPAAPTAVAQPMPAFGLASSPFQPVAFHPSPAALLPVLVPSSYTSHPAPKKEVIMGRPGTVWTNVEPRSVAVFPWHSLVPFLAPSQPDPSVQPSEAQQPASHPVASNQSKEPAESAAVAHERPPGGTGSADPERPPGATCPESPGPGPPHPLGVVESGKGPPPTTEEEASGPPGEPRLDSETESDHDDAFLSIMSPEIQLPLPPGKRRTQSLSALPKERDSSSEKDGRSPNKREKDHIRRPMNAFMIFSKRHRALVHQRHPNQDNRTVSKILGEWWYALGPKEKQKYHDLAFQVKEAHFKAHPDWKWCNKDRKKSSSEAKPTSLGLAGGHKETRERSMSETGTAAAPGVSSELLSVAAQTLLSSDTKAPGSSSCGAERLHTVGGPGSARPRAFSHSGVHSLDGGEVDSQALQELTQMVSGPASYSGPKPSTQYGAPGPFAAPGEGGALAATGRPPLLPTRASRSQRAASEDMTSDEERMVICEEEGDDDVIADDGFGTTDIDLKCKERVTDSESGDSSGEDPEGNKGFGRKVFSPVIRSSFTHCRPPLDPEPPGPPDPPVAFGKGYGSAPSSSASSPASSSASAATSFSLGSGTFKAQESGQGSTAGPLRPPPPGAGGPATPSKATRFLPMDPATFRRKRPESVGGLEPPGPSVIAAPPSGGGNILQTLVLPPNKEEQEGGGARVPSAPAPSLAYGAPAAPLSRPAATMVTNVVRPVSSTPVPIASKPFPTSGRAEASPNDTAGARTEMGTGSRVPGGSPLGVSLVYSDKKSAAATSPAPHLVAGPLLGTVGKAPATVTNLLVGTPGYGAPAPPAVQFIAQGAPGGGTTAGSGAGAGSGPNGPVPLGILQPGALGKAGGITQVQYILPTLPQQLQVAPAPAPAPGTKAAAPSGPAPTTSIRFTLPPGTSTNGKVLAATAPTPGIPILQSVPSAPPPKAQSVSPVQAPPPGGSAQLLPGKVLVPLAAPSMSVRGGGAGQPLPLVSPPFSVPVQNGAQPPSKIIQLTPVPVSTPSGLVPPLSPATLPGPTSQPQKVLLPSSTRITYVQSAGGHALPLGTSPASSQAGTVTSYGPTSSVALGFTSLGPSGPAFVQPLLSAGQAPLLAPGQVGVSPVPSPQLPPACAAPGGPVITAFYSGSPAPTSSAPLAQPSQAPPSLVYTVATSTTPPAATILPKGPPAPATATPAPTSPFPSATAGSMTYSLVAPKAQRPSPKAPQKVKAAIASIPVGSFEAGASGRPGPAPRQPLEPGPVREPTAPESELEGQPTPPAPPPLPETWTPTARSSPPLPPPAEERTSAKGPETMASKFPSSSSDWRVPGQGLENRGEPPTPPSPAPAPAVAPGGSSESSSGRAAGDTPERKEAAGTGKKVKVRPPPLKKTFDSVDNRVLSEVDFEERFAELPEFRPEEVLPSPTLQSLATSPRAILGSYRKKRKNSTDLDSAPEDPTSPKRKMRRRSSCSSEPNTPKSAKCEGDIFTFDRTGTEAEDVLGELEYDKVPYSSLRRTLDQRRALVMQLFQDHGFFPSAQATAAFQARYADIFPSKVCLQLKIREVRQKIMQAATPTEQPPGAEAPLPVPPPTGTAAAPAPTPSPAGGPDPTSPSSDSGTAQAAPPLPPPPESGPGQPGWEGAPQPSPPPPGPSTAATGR

ratio to parent (VN-Impα2; n = 155 (85Q) and 172 (K772T) nuclei): 0.55
Substance: VC-ataxin-1[85Q] (from UniProt P54253) K772T

ratio to parent (VN-CIC): 0.47
ratio to parent (VN-Impα2; n = 101 and 101 nuclei): 0.72
Substance: VC-ataxin-1[85Q] (from UniProt P54253) V591A; S602D

Substance: VN-Impα2 (from UniProt P52293) D192K; E396R
ratio to parent (VC-ataxin-1[85Q]): 0.75
